Patent US20220194999A1

Biological target: HLA-A*02:01 class I complex (conditional p*HLA*02:01, biotinylated heavy chain with beta2-microglobulin) (human)
Experiment: UV peptide exchange, HLA class I ELISA, % of Pos peptide
Details: remark: other sources report otherwise

Average % [%]	Exch I (%)	Exch II (%)	average relative binding (%)	Binder
4.5	4.3	4.6	< 15	LVVVGAVGV (here or on the partner: biotinylated heavy chain) [KRAS.G12V mutant peptide …]
7	6.5	7.5	< 15	LVVVGACGV (here or on the partner: biotinylated heavy chain) [KRAS.G12C mutant peptide …]
